The record followed here is the Immune Epitope Database (IEDB).

Among the targets are HLA-A*30:02; HLA-A*29:02; HLA-A*23:01; HLA-A*26:01; HLA-A*24:02; HLA-A*01:01; HLA-A*32:01.
What all share (assay): IEDB peptide-MHC binding, purified MHC/competitive/radioactivity; filed as Kd, often an IC50 or EC50 that approximates it; ≥ and ≤ were set here for values at or beyond the usual limits of such assays
In the next experiment the target is HLA-A*68:01. The settings on record: source organism: Triticum aestivum.
A further experiment addresses HLA-A*33:01. The settings on record: source organism: Triticum aestivum.
Another experiment concerns the target HLA-A*31:01. The settings on record: source organism: Triticum aestivum.
The target of the next experiment is HLA-A*03:01. Conditions: source organism: Triticum aestivum.
The next experiment addresses HLA-A*11:01. The settings on record: source organism: Triticum aestivum.
Where [1] appears, read: source organism: SARS coronavirus Tor2.
Setting [2] is: source organism: Vaccinia virus WR.
Where [3] appears, read: source organism: Mammarenavirus lassaense.
Setting [4] is: source organism: Mammarenavirus mopeiaense.
Where [5] appears, read: source organism: Mammarenavirus guanaritoense.
Setting [6] is: source organism: Triticum aestivum.
[7] abbreviates: source organism: Lymphocytic choriomeningitis virus (strain Armstrong).

The Kd is the free concentration of one partner at which half of the binding sites on the other are occupied at equilibrium, for simple one-to-one binding. As for YFTNDVSFL, the Kd with HLA-A*30:02 (setting [1]) was at least 96.8 µM; with HLA-A*29:02 (setting [1]), at least 75 µM; with HLA-A*23:01 (setting [1]), 18.3 µM; in the experiment with HLA-A*26:01 (setting [1]), 16.1 µM; in the experiment with HLA-A*24:02 (setting [1]), at least 78.1 µM; in the experiment with HLA-A*01:01 (setting [1]) it was 12.9 µM.
As for EFLTRNPAW, the Kd is at least 100 µM with HLA-A*30:02 (setting [1]); at least 45.2 µM in the experiment with HLA-A*29:02 (setting [1]); at least 84.5 µM with HLA-A*23:01 (setting [1]); at least 69 µM with HLA-A*26:01 (setting [1]); at least 84.5 µM with HLA-A*24:02 (setting [1]); at least 78.1 µM with HLA-A*01:01 (setting [1]).
As for HFAIGLALY, the dissociation constant Kd is 0.0132 µM with HLA-A*30:02 (setting [1]); 0.00471 µM with HLA-A*29:02 (setting [1]); 11.5 µM with HLA-A*23:01 (setting [1]); 0.24 µM with HLA-A*26:01 (setting [1]); 11.1 µM with HLA-A*24:02 (setting [1]); at least 119 µM in the experiment with HLA-A*01:01 (setting [1]).
On to RTYGVNYTF, for which, in the experiment with HLA-A*32:01 (setting [2]), the Kd came out at 0.000261 µM.
As to KTTAKEVAL, the equilibrium dissociation constant (Kd) with HLA-A*32:01 (source organism: Dengue virus 4 Philippines/H241/1956) was at least 21.1 µM.
Turning to LTGTFVTAF, in the experiment with HLA-A*32:01 (setting [2]), the Kd is 0.00881 µM.
ADAGFMKQY: the dissociation constant (Kd) with HLA-A*30:02 (setting [1]) is at least 46.2 µM; in the experiment with HLA-A*29:02 (setting [1]), 15.3 µM; with HLA-A*23:01 (setting [1]) it was at least 77.8 µM; with HLA-A*26:01 (setting [1]) it was at least 81.5 µM; with HLA-A*24:02 (setting [1]), at least 77.6 µM; with HLA-A*01:01 (setting [1]), at least 87.7 µM.
On to VFYLYLTFYF, for which the Kd was 12.4 µM with HLA-A*30:02 (setting [1]); 4.15e-05 µM in the experiment with HLA-A*29:02 (setting [1]); 6.11e-05 µM with HLA-A*23:01 (setting [1]); 0.621 µM with HLA-A*26:01 (setting [1]); 7.98e-05 µM in the experiment with HLA-A*24:02 (setting [1]); 0.566 µM with HLA-A*01:01 (setting [1]).
With YIAVNDKALY, the Kd in the experiment with HLA-A*30:02 (setting [1]) was 0.141 µM; in the experiment with HLA-A*29:02 (setting [1]), 0.00881 µM; with HLA-A*23:01 (setting [1]) it was at least 55 µM; with HLA-A*26:01 (setting [1]), 2.6 µM; with HLA-A*24:02 (setting [1]), at least 70.3 µM; with HLA-A*01:01 (setting [1]) it was 0.0129 µM.
In the case of MGEDGCWYGM, the Kd with HLA-A*32:01 (source organism: Dengue virus 3 Martinique/1243/1999) was at least 36.4 µM.
Regarding TTQTSALSI, the Kd in the experiment with HLA-A*32:01 (setting [2]) is 0.145 µM.
With YFESYVRPFV, the Kd was 4.25 µM with HLA-A*30:02 (setting [3]); 3.94 µM in the experiment with HLA-A*29:02 (setting [3]); 1.89 µM with HLA-A*23:01 (setting [3]); at least 46.1 µM with HLA-A*26:01 (setting [3]); 12.8 µM with HLA-A*24:02 (setting [3]); at least 70.4 µM in the experiment with HLA-A*01:01 (setting [3]).
In the case of RVLFNNFKI, in the experiment with HLA-A*32:01 (setting [2]), the Kd was determined as 0.000885 µM.
Take LVAEMDGIQY: the Kd is 0.102 µM with HLA-A*30:02 (setting [1]); 0.103 µM with HLA-A*29:02 (setting [1]); at least 70 µM in the experiment with HLA-A*23:01 (setting [1]); 0.346 µM with HLA-A*26:01 (setting [1]); at least 70.3 µM in the experiment with HLA-A*24:02 (setting [1]); 0.246 µM with HLA-A*01:01 (setting [1]).
In the case of CFANKHAGF, the Kd with HLA-A*30:02 (setting [1]) was 6.62 µM; with HLA-A*29:02 (setting [1]), 0.0288 µM; with HLA-A*23:01 (setting [1]), 0.105 µM; with HLA-A*26:01 (setting [1]) it was 11.8 µM; with HLA-A*24:02 (setting [1]), 0.0274 µM; with HLA-A*01:01 (setting [1]), at least 78.1 µM.
Regarding SQQKADWIPL, in the experiment with HLA-A*32:01 (source organism: Dengue virus 2 Jamaica/1409/1983), the equilibrium dissociation constant (Kd) turned out to be 2.79 µM.
Take KLFYVYYNL: in the experiment with HLA-A*32:01 (setting [2]), the Kd amounted to 0.000344 µM.
As to VMPLSAPTL, the Kd was at least 75 µM with HLA-A*30:02 (setting [1]); 7.05 µM with HLA-A*29:02 (setting [1]); 6.45 µM with HLA-A*23:01 (setting [1]); at least 77.9 µM with HLA-A*26:01 (setting [1]); 13.3 µM in the experiment with HLA-A*24:02 (setting [1]); at least 78.1 µM with HLA-A*01:01 (setting [1]).
On to RTFNRTHYW, for which the dissociation constant (Kd) with HLA-A*32:01 (setting [2]) turned out to be 0.000243 µM.
With IKIPTHRHI, the Kd with HLA-A*30:02 (setting [4]) is at least 76.9 µM; with HLA-A*29:02 (setting [4]), at least 78.9 µM; with HLA-A*23:01 (setting [4]), at least 24.8 µM; with HLA-A*26:01 (setting [4]) it was at least 77.9 µM; with HLA-A*24:02 (setting [4]), at least 57.1 µM; in the experiment with HLA-A*01:01 (setting [4]), 16.6 µM.
As to VFQAKSAFV, the Kd is 1.05 µM with HLA-A*30:02 (setting [5]); at least 78.9 µM in the experiment with HLA-A*29:02 (setting [5]); 0.855 µM with HLA-A*23:01 (setting [5]); at least 77.9 µM in the experiment with HLA-A*26:01 (setting [5]); 1.06 µM with HLA-A*24:02 (setting [5]); at least 31.4 µM with HLA-A*01:01 (setting [5]).
In the case of VSFQQPLQQY, the Kd is 6.09 µM with HLA-A*30:02 (setting [6]); 2.84 µM with HLA-A*29:02 (setting [6]); at least 70.2 µM in the experiment with HLA-A*68:01; at least 70 µM with HLA-A*33:01; at least 70 µM in the experiment with HLA-A*31:01; 2.34 µM in the experiment with HLA-A*03:01. For the same sequence, the Kd with HLA-A*23:01 (setting [6]) was at least 42.4 µM; with HLA-A*11:01, 0.138 µM; with HLA-A*26:01 (setting [6]), at least 43 µM; with HLA-A*24:02 (setting [6]) it was at least 70.3 µM; with HLA-A*01:01 (setting [6]) it was 0.0385 µM.
Consider CYSSVNDRLV, for which the Kd with HLA-A*30:02 (setting [7]) is 3.96 µM; with HLA-A*29:02 (setting [7]), 13 µM; in the experiment with HLA-A*23:01 (setting [7]) it was 1.87 µM; with HLA-A*26:01 (setting [7]), at least 69.7 µM; in the experiment with HLA-A*24:02 (setting [7]), 1.13 µM; in the experiment with HLA-A*01:01 (setting [7]), 11.1 µM.
